Here are results for 5 molecules from paper PMC4239610, “A Peptide Derived from G0/G1 Switch Gene 2 Acts as Noncompetitive Inhibitor of Adipose Triglyceride Lipase” (The Journal of Biological Chemistry, 2014).

Experiment [1] concerns mATGL. Nature of the experiment: TG hydrolase activity, E. coli expressed mATGL, CGI-58 activated, hG0S2 truncations (Fig. 1C-E). Format: biochemical, mouse. Particulars: mATGL E. coli extract (50 μg), 2.5 μg purified mCGI-58, 30 μg lysate of E. coli expressing hG0S2 variant, [3H]triolein, triplicates. As to the method: Protein concentrations were determined as described below.
FIGURE 1. Minimal sequence requirements of human G0S2 for ATGL inhibition. A, graphical representation of full-length and shortened versions of hG0S2, those capable of inhibiting ATGL activity are illustrated in black. The largely hydrophobic sequence stretch from Val-28 to Met-42 is depicted in light gray. B–E, activity assays were performed in the presence of CGI-58 as indicated by an asterisk (ATGL*). G0S2 and variants thereof were expressed in E. coli and added as cell lysates. Overexpressed mATGL from E. coli lysates was used for all assays with the exception of the assay shown in B. B, inhibition of TG hydrolase activity of mATGL containing COS-7 cell extracts by WT and C-terminally truncated hG0S2 variants. C, inhibition of TG hydrolase activity of mATGL by WT and C-terminally truncated hG0S2 variants. D, inhibition of TG hydrolase activity of mATGL by WT hG0S2 and variants with N-terminal deletions. E, effect of different N- and C-terminal truncations in hG0S2 on mATGL activity. The fusion tag smt3 is shown as control.

Experiment [2] deals with ATGL. Particulars: cited from earlier work. The source says: Activation of ATGL by CGI-58 is considered as fasting response upon β-adrenergic stimulation and phosphorylation of PKA ([12]). Recent studies have strengthened the role of G0S2 as the so-called master regulator of basal and stimulated lipolysis ([27]). mRNA levels of G0S2 respond strongly to hormonal stimuli, yet the dose-dependent inhibition of ATGL by G0S2 itself is reported to be independent of phosphorylation events ([18], [20], [21], [28], [29]). Thus, regulation of the expression levels of G0S2, and consequently the protein concentration, resembles a potent mean to regulate lipid mobili ... || Structural knowledge on ATGL is very limited. It is predicted to exert lipolytic activity via a catalytic dyad that resides in the patatin domain within the N-terminal half of the lipase ([7], [50]). […] In contrast, Atglis ...

Experiment [3] relates to ATGL. Particulars: cited from earlier work. From the text: Extensive research on the physiological role of ATGL has identified complex regulatory mechanisms for its activity on the transcriptional and post-translational level ([12], [13]). Direct protein-protein interaction of ATGL with the protein comparative gene identification 58 (CGI-58) increases ATGL activity up to 20-fold ([14]). Inhibition of ATGL due to direct interaction with the small, 103-amino acid protein G0/G1 switch gene 2 (G0S2) was discovered in 2010 and confirmed using human and murine proteins ([15][–][21]). The highest G0S2 expression is found in adipose tissues, but it is also pr ... || Activation of ATGL by CGI-58 is considered as fasting response upon β-adrenergic stimulation and phosphorylation of PKA ([12]). Recent studies have strengthened the role of G0S2 as the so-called master regulator of basal and stimulated lipolysis ([27]). mRNA levels of G0S2 respond strongly to hormonal stimuli, yet the dose-dependent inhibition of ATGL by G0S2 itself is reported to be independent of phosphorylation events ([18], [20], [21], [28], [29]). Thus, regulation of the expression levels of G0S2, and consequently the protein concentration, resembles a potent mean to regulate lipid mobili ... || Next, we investigated the specificity of the peptide hGW2052. ATGL and HSL together account for more than 95% of intracellular TG hydrolase activity in white adipose tissue (WAT) ([48]). […]
The source holds these as a separate data set.

Experiment [4] concerns the target mATGL (Mus musculus, UniProt Q8BJ56). Nature of the experiment: TG hydrolase activity of CGI-58-stimulated mATGL (mATGL*) expressed in E. coli. Particulars: read-out: half-maximal inhibitory concentration (IC50), CGI-58-stimulated ATGL; mATGL from E. coli (25 μg lysate protein) with 2.5 μg mCGI-58; [3H]triolein substrate; triplicates; Fig. 2E (hGW2052), 2F (WT hG0S2).
Experimental: The peptides were dissolved in 100% DMSO, and concentrations were determined via the absorbance at 280 nm. The final DMSO concentration in the activity assay was ≤1%. The control peptide was prepared the same way.
TG hydrolase activity assay was performed as described ([45]). To screen for the inhibitory capacity of various hG0S2 truncations, 30 μg of protein of cell lysates were incubated with the [^3H]triolein substrate together with 50 μg of cell extract of Strep-mATGL (or COS-7-mATGL) and 2.5 μg of purified mCGI-58. As a control, lysates of the His6-Smt tag were incubated under the same conditions. […] TG substrate was prepared with 1.67 mM triolein, 10 μCi/ml [9,10-^3H]triolein (PerkinElmer Life Sciences), and 190 μM phosphatidylcholine/phosphatidylinositol (3:1) (Sigma) and diluted to the respective concentrations after sonication. Assays with CGI-58 co-activated ATGL were performed on a smaller scale. […] Lysates using LacZ-expressing cells were used as controls. The reaction was terminated by adding 650 μl of methanol/chloroform/heptane (10:9:7) and 200 μl of 100 mM potassium carbonate buffer, pH 10.5 (adjusted with boric acid). The radioactivity in 200 μl of the upper phase (450 μl in total) was determined by liquid scintillation counting.

mATGL (Mus musculus, UniProt Q8BJ56), sequence (Q8BJ56 whole entry): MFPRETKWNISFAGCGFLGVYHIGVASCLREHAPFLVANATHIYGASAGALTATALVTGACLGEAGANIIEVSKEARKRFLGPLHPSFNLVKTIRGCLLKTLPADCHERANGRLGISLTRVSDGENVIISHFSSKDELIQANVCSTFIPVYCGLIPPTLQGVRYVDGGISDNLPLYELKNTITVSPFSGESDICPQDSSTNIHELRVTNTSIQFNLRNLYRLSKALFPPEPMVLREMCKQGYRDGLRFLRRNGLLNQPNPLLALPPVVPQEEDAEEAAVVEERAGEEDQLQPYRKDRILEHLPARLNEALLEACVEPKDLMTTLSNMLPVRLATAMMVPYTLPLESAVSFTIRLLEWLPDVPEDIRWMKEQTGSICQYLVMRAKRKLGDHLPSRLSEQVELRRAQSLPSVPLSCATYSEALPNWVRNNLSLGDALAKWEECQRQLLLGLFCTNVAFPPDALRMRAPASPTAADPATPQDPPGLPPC
mATGL (Mus musculus, UniProt Q8BJ56), sequence (Q9DBL9 whole entry partner): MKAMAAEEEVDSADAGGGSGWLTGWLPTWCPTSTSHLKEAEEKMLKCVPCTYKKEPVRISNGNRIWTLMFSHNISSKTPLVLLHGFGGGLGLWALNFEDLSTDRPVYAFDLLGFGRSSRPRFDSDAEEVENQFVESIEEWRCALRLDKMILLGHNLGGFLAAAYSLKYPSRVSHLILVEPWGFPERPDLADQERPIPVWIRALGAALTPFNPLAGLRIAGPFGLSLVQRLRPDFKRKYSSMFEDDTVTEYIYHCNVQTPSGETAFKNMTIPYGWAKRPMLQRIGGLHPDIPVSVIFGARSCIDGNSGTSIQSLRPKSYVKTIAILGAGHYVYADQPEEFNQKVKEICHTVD

B1: hG0S2_27–103: N-terminally truncated hG0S2 until residue Tyr-27 (protein, UniProt P27469 27-103, looked up, fragment)
chain: YVLGSVLALFGVVLGLMETVCSPFTAARRLRDQEAAVAELQAALERQALQKQALQEKGKQQDTVLGGRALSNRQHAS
B1: the “inhibition of TG hydrolase activity (result in words)” value in the experiment with mATGL [1] was “fully inhibit ATGL activity”; with mATGL [1] (listed as Tyr-27–Ser-103), “fully able to inhibit ATGL”.

B2: G0S2 truncated after residue Gly-30: Truncation of G0S2 after residue Gly-30 (N-terminal) (protein, UniProt P27469 30-103, looked up, fragment)
chain: GSVLALFGVVLGLMETVCSPFTAARRLRDQEAAVAELQAALERQALQKQALQEKGKQQDTVLGGRALSNRQHAS
Take B2: the “inhibition of TG hydrolase activity (result in words)” value in the experiment with mATGL [1] is “complete loss of the capacity to inhibit ATGL”.

B3: G0S2 Met-1–Gln-73: truncated variant of G0S2 encompassing the residues Met-1–Gln-73 (protein, UniProt P27469 1-73, looked up, fragment)
chain: METVQELIPLAKEMMAQKRKGKMVKLYVLGSVLALFGVVLGLMETVCSPFTAARRLRDQEAAVAELQAALERQ
On to B3, for which, in the experiment on ATGL [2] (ref [20]), the “interaction with ATGL” value is recorded as “interacts with ATGL”. In addition, the “inhibition of ATGL (in words)” value in the experiment with ATGL [3] (truncated/deleted G0S2 variants, ref [20]) was “inhibits the enzyme”.

B4: hG0S2: full-length human G0S2, 103-amino acid protein, expressed in E. coli (protein)
chain: METVQELIPLAKEMMAQKRKGKMVKLYVLGSVLALFGVVLGLMETVCSPFTAARRLRDQEAAVAELQAALERQALQKQALQEKGKQQDTVLGGRALSNRQHAS
modifications: left off: His6, N-terminal, cleaved | Smt, N-terminal, cleaved
notes: full-length human G0S2, 103-amino acid protein, expressed in E. coli
B4: the “site of interaction with ATGL” value with ATGL [2] (ref [15]) is reported as “interacts with the N-terminal catalytic domain of ATGL”. Further, the IC50 in the experiment with mATGL [4] came out at 19 nM.

B5: CGI-58: comparative gene identification 58, protein co-activator of ATGL (protein, UniProt Q8WTS1 2-349, looked up)
1-acylglycerol-3-phosphate …: AAEEEEVDSADTGERSGWLTGWLPTWCPTSISHLKEAEEKMLKCVPCTYKKEPVRISNGNKIWTLKFSHNISNKTPLVLLHGFGGGLGLWALNFGDLCTNRPVYAFDLLGFGRSSRPRFDSDAEEVENQFVESIEEWRCALGLDKMILLGHNLGGFLAAAYSLKYPSRVNHLILVEPWGFPERPDLADQDRPIPVWIRALGAALTPFNPLAGLRIAGPFGLSLVQRLRPDFKRKYSSMFEDDTVTEYIYHCNVQTPSGETAFKNMTIPYGWAKRPMLQRIGKMHPDIPVSVIFGARSCIDGNSGTSIQSLRPHSYVKTIAILGAGHYVYADQPEEFNQKVKEICDTVD
On to B5, for which the “increase of ATGL activity” value in the experiment on ATGL [3] (direct protein-protein interaction with ATGL, ref [14]) is “up to 20 fold”.
